How the values were obtained:
[1] = target: mouse transferrin receptor (mTfR) (Mus musculus, UniProt Q62351 89-763); assay: bead-based flow cytometry; 200 nM aptamer; SB1T: 40 mM HEPES, 125 mM NaCl, 5 mM KCl, 1 mM MgCl2, 1 mM CaCl2, 0.05% Tween20, 1 mg/mL salmon sperm DNA; 37 °C, 30 min; pH not stated; conditions: protein: recombinant, chain copies: 2, label: 5' DyLight 650 via thiol C6
[2] = target: T1, human transferrin receptor 1 (hTfR) (Homo sapiens, UniProt P02786 89-760); assay: bead-based flow cytometry; apparent Kd; 0-100 nM aptamer range; SB1T: 40 mM HEPES, 125 mM NaCl, 5 mM KCl, 1 mM MgCl2, 1 mM CaCl2, 0.05% Tween20, 1 mg/mL salmon sperm DNA; 37 °C, 30 min; pH not stated; conditions: protein: recombinant; tags: His; chain copies: 2; label: 5' DyLight 650 via thiol C6
[3] = target: T1, human transferrin receptor 1 (hTfR); assay: bead-based flow cytometry; apparent Kd; SB1T: 40 mM HEPES, 125 mM NaCl, 5 mM KCl, 1 mM MgCl2, 1 mM CaCl2, 0.05% Tween20, 1 mg/mL salmon sperm DNA; 37 °C, 30 min; pH not stated; conditions: protein: recombinant, tags: His, chain copies: 2, label: 5' DyLight 650 via thiol C6
[4] = hairpin with bulge and loop (predicted)

T1 sequence (P02786 89-760): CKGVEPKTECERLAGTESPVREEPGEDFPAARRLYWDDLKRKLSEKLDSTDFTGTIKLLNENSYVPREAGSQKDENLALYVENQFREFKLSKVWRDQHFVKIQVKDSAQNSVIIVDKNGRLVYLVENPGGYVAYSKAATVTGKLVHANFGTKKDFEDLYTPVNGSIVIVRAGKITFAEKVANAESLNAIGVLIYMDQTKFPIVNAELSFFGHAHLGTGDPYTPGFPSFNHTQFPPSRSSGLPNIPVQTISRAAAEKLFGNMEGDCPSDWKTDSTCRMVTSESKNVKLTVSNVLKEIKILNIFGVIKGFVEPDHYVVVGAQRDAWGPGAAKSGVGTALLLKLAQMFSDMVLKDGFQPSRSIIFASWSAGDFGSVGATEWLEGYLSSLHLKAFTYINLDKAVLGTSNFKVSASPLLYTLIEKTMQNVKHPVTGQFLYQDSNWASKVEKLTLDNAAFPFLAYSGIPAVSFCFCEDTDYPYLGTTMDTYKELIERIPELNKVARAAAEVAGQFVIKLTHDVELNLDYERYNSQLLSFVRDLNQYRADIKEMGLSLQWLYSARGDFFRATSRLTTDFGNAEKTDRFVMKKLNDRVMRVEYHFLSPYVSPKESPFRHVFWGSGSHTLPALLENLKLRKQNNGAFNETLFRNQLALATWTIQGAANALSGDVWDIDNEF
Chain of mouse transferrin receptor (mTfR) (Q62351 89-763): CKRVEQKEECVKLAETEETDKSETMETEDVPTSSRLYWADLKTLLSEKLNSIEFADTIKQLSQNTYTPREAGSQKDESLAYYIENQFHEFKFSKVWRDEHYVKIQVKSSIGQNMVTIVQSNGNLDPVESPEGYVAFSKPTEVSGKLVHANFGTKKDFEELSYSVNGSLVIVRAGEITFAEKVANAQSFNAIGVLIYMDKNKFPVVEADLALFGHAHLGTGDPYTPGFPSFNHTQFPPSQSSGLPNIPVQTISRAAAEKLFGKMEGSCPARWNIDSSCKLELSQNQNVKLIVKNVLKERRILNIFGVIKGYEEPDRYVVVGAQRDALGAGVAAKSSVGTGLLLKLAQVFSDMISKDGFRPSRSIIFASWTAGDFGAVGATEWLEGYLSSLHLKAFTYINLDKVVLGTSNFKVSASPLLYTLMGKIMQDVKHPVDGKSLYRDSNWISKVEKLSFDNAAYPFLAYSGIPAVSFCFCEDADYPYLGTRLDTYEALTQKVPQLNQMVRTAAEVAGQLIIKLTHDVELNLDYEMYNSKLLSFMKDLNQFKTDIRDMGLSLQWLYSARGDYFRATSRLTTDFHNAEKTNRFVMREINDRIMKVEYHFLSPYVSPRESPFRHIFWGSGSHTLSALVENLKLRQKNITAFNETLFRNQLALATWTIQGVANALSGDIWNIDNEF

GGGUUCUACGAUAAACGGUUAAUGACCAGCUUAUGGCUGGCAGUUCCC (XNA, 2'-fluoro pyrimidines; 3' inverted dT) [Waz (DL650-Waz)]
binding result [1]: no binding | Kd [2]: 22.1 nM

GGCGUAGUGAUUAUGAAUCGUGUGCUAAUACACGCC (XNA, 2'-fluoro pyrimidines; 3' inverted dT) [C36 (DL650-C36)]
binding result [1]: no binding

GGGGGAUCAAUCCAAGGGACCCGGAAACGCUCCCUUACACCCC (XNA, 2'-fluoro pyrimidines; 3' inverted dT) [C2.min (DL650-C2.min)]
Kd [3]: 7.44 nM

GGCUUUCGGGCUUUCGGCAACAUCAGCCCCUCAGCC (XNA, 2'-fluoro pyrimidines; 3' inverted dT) [E3 (DL650-E3)]
binding result [1, 4]: no binding | Kd [3, 4]: 4.23 nM

Reference: PMC10136559, “An Aptamer That Rapidly Internalizes into Cancer Cells Utilizes the Transferrin Receptor Pathway”
